# Assay results: the DeepSol protein solubility set
# Assay: soluble on expression in E. coli; label from the status in PepcDB or PDB records
row,Sequence,soluble on expression in E. coli
1,MGSDKIHHHHHHMSNTGSLSYLRILDFTGEIGPYAAKLYAGLGADVIHIEPIAGDTLRSTGPFFGNRPGKERSMQFIYYNAGKRGLVLDLKKEKGKEVFVDLCKGADILFESFTPGYLDELGLSFDVLSAANPKLVQTSITPFGSFGPYSTYPGSDLTCSALGGFLYLAGIDNDKPVRACDNQAYRMAEVYAAVGSSIALLFAQKTGVGQFVDVSCMEAVGMALETAAQCWDLEGTLRRGRGKEAGSATIHPCKDGFIAIVAIVGRNKTMWTPFVQWMKEEGVEEWELFDNDNWINASYRESKAGYELFCRIFERFTMKHTKQYLYDAGQAHRVAVSPVSNGKDLLENPQLNHHDFWQRLYHEPVGAEVVCPGAPYEFGHLKWRLGDFAPTFGQHTAEVLGECGYSRSEIDALDREGVVHVAKS,not soluble
2,MEDLEHGVASNGLRYGFYRVESESAAICIAARGGSSFEPPGKYGIAHLTEHMIFRGNEYLQDGELDRAVELSGGEANAYTTRELILLCAEFVSDSLARVAEKLFLAVSARRLVEGEFERERAVVEAEVKGLISSPESRIYRLAHASAWGDSHLGRPIEGYPETVANISKADVEEYKASVFSPERMSLAIVGRISRLEALRVVKLFSQLEPGGKVREPETPEPRTTFLREERGIEAAYAALTLPLPPRSGLANVLARLRGVVFNLEAGATSILFKEVREERGLAYGFNVDVHITSWGSSMSLIVLEGNRDRVGELFDAMTRSLERALRGGYPESEWREGRRRLYRFYTRREAISNMERADALSAVILFHEKPFTLEDLVNQTLSSEWSLEEFLRLPRGLALIV,not soluble
3,MKQRGGFLGGQLLIAMPGMNDKRFIRSVIYICAHSDAGAMGIILNQLHHIGFPELLLHLGVINSGQKKDLSEPIKKFPVRYGGPVDPSRGFVLHSDDYACEETVLVADKICFTATIDILKAISCEKGPQHALIALGYAGWKAGQLEAEISTNGWLISSTSPSFLFESDLNRKYDESLIRMGINPTYLVSEMGHA,not soluble
4,AKVEVGDEVGNFKFYPDSITVSAGEAVEFTLVGETPHNIVFDIPAGAPGTVASELKAASMDENDLLSEDEPSFKAKVSTPGTYTFYCTPHKSANMKGTLTVK,soluble
5,MQFNYDVIVVGAGHAGCEAAAAAAKLGSQVLLITPDMNKIAQMSCNPAVGGIAKGQIVREIDALGGRMGIVTDATAIQFRMLNRSKGPAMWSPRAQSDRMRFMEAWRDIVEHEPNLYMWQDSVRCLSIRQGAVAGVVTALGVEFQARTVVLTTGTFLGGVMHFGERMIEGGRIAEPAFHGITEQLRDLGFRTDRMKTGTPARIDGRSIDFSLTTEQSGEEDHHRFSYMDTPRRVLRQRSCYALYTNPECHEILSKGLDRSPLYNGQIQSIGPRYCPSIETKIVTFADKEMHQLFLEPEGETSNEFYLNGFSSSLPLEIQLEALKAIPALRHVHIYRPGYAIEYDFFDPTQLRHTLETKPVKGLFFAGQINGTTGYEEAAGQGLIAGINAHLHCHGAGEFTLGRDEAYIGVLIDDLVSKGVDEPYRMFTSRAEYRILLRQDDADMRLTPKAEAIGLADSRRSELLREKQVFRDKLIDFTHKFSLKPDLINPHLESAGHLPLKQGIKLYDLLLRPQIGMNEVCSMVPSLQRIVEEIPASRREEIVEAAEILIKYDGYIKRERALADKINRLESIRLPQHVDYMQMQSLSTEARQKLTSIRPETIAQASRIPGVSPHDVSILLVLCGR,not soluble
6,MLERQQDSFRFICRTCPFYYQVEGKMERKVFGLQKKQEADILGGDKQWELADQTDTLCPRCSHGKAYFFQMQTRSADEPMSTFYRCVHCGHQWKEN,soluble
7,MLLEAIFHEAKGSYAYPISETQLRVRLRAKKGDVVRCEVLYADRYASPEEELAHALAGKAGSDERFDYFEALLECSTKRVKYVFLLTGPQGEAVYFGETGFSAERSKAGVFQYAYIHRSEVFTTPEWAKEAVIYQIFPERFANGDPSNDPPGTEQWAKDARPRHDSFYGGDLKGVIDRLPYLEELGVTALYFTPIFASPSHHKYDTADYLAIDPQFGDLPTFRRLVDEAHRRGIKIILDAVFNHAGDQFFAFRDVLQKGEQSRYKDWFFIEDFPVSKTSRTNYETFAVQVPAMPKLRTENPEVKEYLFDVARFWMEQGIDGWRLDVANEVDHAFWREFRRLVKSLNPDALIVGAIWHDASGWLMGDQFDSVMNYLFRESVIRFFATGEIHAERFDAELTRARMLYPEQAAQGLWNLLDSHDTERFLTSCGGNEAKFRLAVLFQMTYLGTPLIYYGDEIGMAGATDPDCRRPMIWEEKEQNRGLFEFYKELIRLRHRLASLTRGNVRSWHADKQANLYAFVRTVQDQHVGVVLNNRGEKQTVLLQVPESGGKTWLDCLTGEEVHGKQGQLKLTLRPYQGMILWNGR,soluble
8,MYSERPPLDPHPLSPYMAWTGYRNRDAILDVLKGVFPRDKSDVLEFAAGSGMHAHYFAQHFAHLTFHPSDSDEDLLPHIEERTRQSGLSNVARPRRLDLTQPETWPAGEKFHAIYCINVCQVAPVSIVGGIMACSSRILADGGFLFIYGPFLDYGRFASDFDEEFDRLLRSTGEEGWSLKDIAELDRAAGRHGMRLDDEIDMPSNDFALIYRRA,not soluble
9,MREIINKLNPIIIDKADKKFGVSRILKKYDGKPVYIKDVNGFEVVGNLCSRETLSKIFNVKKEDFIFFMLDAMEKEKEGKLKINNKLKEKYIVEIPENIKNWPIPIYYEKDAGAYITSGVVVVYDKDYGYNLSIHRILVKDDYLVIRMVEQRHLHFLYNKALKEKGYLDVAIVIGVHPAVLLAGSTSADITFDELKFAAALLGGEIGVFELDNGLLVPEAEFIIEGKILPEVDDEGPFVDITGTYDIVRKQPIIKIEKLYRKEKPIFHALLPGGIEHKTLMGMPQEPRILKGVRNTVPTVKNIVLTEGGCCWLHAVVQIEKRTEGDGKNAILAAFASHPSLKHVIVVDDDINIFDINDVEYAIATRVQGDKDIVIISGAKGSSLDPSSDLKNKLTAKVGVDATMSLIKGREHFERAKIPDKLEHHHHHH,soluble
10,MGSDKIHHHHHHMYLDVIEPDHPDYLTALLVKADLYDTEGLTEVAREKLLEASQISQEPLVIFGLAEIEMNLSDFQAAIQHYAQLDNRAILEETGVSTYERIGRAYASLGKFETAIEFLEKAVEIEFDETTVFEVATLLYDQEEYQRANLYFKQLDSMNPDFAGYEYNYALSLHAEHQTKQALRMLQQGLSKNEFDSQLLLLASQLSYELHDKKAAENYLLKVLETAEDDEEALMRLSNLYLEENRFEDVINLDRADIDSVLTKWNIAKAYQKLEADTKALEIYDTLIVDLADNPDFLKDYIYILRKFGYDEKVKTFADKYLQLVPDDNDIADLREQLQ,not soluble
11,MGSDKIHHHHHHMIHEQDVQKLLNYITSHFGVDPERWFHPEGYQSIALAILDSIYSTGNRYTGVLNLVNRYCGLRANEGSHPEADTATDLIETFYRWGGVDEFVLKTNNRWRTSSKIHAPYKAYAALEAAKVLAGHSIESISDVVGRFDSRESREHSDIAREWLMITGQSSALTWSYFLMLVGVPGVKADRMIVRFVTHVLERPKEISRHEASRLIEEVADIMCVNYIYLDHTIWRFQSGRPYLQEDSSPFE,not soluble
12,MSEKPLTKTDYLMRLRRCQTIDTLERVIEKNKYELSDNELAVFYSAADHRLAELTMNKLYDKIPSSVWKFIR,soluble
13,MSLKISEVATPNFLLDLDQLEKNIDKIQQICTNNNKQLWPMLKTHKSTYIARLQKNAGASGFLVGTLDEGEALIKAGFEDIMLAYPYMGEVNINRIVTMASKINLICATDNIECAKAYSEAFSKSKIECKLLIIVDCGLHRFGVEPEKVVELATEISKLENIKIVGISSHPGQVYGCSSPEGVPDVCVQEDSSMEKAYKALTDNGFNIEIVASGSTPTVESEAACKTITAVRPGNYVYYDAIQIGLGCATEDMCALTVVCTVISKNSSGYYLIDCGSKCLGLDKGAHGNSSIVGYGRVCGHPELTIDSLSEEVGKIKVNGETDIKIGDRIRIIPNHSCSTANLTSNLLGFRGDTIEKVIEVDIRENSEGHHHHHH,soluble
14,MKIVDVLCTPGLTGFYFDDQRAIKKGAGHDGFTYTGSTVTEGFTQVRQKGESISVLLVLEDGQVAHGDCAAVQYSGAGGRDPLFLAKDFIPVIEKEIAPKLIGREITNFKPMAEEFDKMTVNGNRLHTAIRYGITQAILDAVAKTRKVTMAEVIRDEYNPGAEINAVPVFAQSGDDRYDNVDKMIIKEADVLPHALINNVEEKLGLKGEKLLEYVKWLRDRIIKLRVREDYAPIFHIDVYGTIGAAFDVDIKAMADYIQTLAEAAKPFHLRIEGPMDVEDRQKQMEAMRDLRAELDGRGVDAELVADEWCNTVEDVKFFTDNKAGHMVQIKTPDLGGVNNIADAIMYCKANGMGAYCGGTCNETNRSAEVTTNIGMACGARQVLAKPGMGVDEGMMIVKNEMNRVLALVGRRK,soluble
15,IIHEVQKEEACGNLTLQHHMLEPVQRIPRYELLLKDYLLKLPHGSPDSKDAQKSLELIATAAEHSNAAIRKMERMHKLLKVYELLGGEEDIVSPTKELIKEGHILKLSAKNGTTQDRYLILFNDRLLYCVPRLRLLGQKFSVRARIDVDGMELKESSNLNLPRTFLVSGKQRSLELQARTEEEKKDWVQAINSTLLKHEQTLETFKLLNSTNREDEDTPPNSPNVDLGKRAPTPIREKEVTMCMRCQEPFNSITKRRHHCKACGHVVCGKCSEFRARLVYDNNRSNRVCTDCYVALHGVPGSSPACSQHTPQRRRSILEKQASVAAENSVICSFLHYMEKGGKGWHKAWFVVPENEPLVLYIYGAPQDVKAQRSLPLIGFEVGPPEAGERPDRRHVFKITQSHLSWYFSPETEELQRRWMAVLGRAGRGDTFCPGPTLSEDREMEEAPVAALGATAEPPESPQTRDKT,soluble
16,MINTNLSSNESSAVYIHIPFCEHICYYCDFNKVFLEGQPVDEYVDLLIKEMELTVAKGPIAPVDTVFVGGGTPTTLNEAQIARLCTAIHNTLPLKKDIEFSFEANPGDLSLSKLQAMQDHGVNRISMGVQSFNNELLKKIGRIHTVKDVYQSVENMRKIGFENVSIDLIFSLPGQTEADFQDTLKQALDLDLPHYSAYSLIIEPKTIFYNLMQKGKLFLPGQDAEANMYDLLLNEMEKHGRKQYEISNFAKEGFQSKHNITYWSNEHYYGFGAGAHGYVGNTRYSNFGPIKKYMEPLQENILPTFQQKELTLKEKMEEEMFLGLRKVDGVDKKHFKQKFGQDLDATFANAIQKTTAKGWLENNEENVALTRSGRFLGNNVFQEFL,not soluble
17,MSQPCPHCGFQFNCICSLVPKLTSKHEILLLMHPNELTRDTNTGQLLQHCQLNVEQAIWDRKQPPAELLTRLANPSLYPVILFPSEESITLEHVEMQSQQQAKMPLYIILDATWQEARKMINKSRWLEGIPTMGLSALADSQYQLRRNQQQGNLCTFEVAAHLLGQLGEQDNQQQMHTFFTHYLALFQAEKSGHALKSSPRSLEAAALEHHHHHH,not soluble
18,MPEAVVLINSASDANSIEQTALPVPMALVHRTRVQDAFPVSWIPKGGDRFSVTAVLPHDHPFFAPVHGDRHDPLLIAETLRQAAMLVFHAGYGVPVGYHFLMATLDYTCHLDHLGVSGEVAELEVEVACSQLKFRGGQPVQGQVDWAVRRAGRLAATGTATTRFTSPQVYRRMRGDFATPTASVPGTAPVPAARAGRTRDEDVVLSASSQQDTWRLRVDTSHPTLFQRPNDHVPGMLLLEAARQAACLVTGPAPFVPSIGGTRFVRYAEFDSPCWIQATVRPGPAAGLTTVRVTGHQDGSLVFLTTLSGPAFSGAAALEHHHHHH,not soluble
